Measured values reported in the supplement of paper PMC10724198.
± gives the standard deviation of the averaged measurements.

Tested on: Saccharomyces cerevisiae
Assay: protein stability index of tFT-peptide fusion (C-terminal peptide) (PSI (0-1 scale)); higher = more stable (slower turnover)
Conditions: genetic background: wild type; temperature: 30 C
Protocol: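 MPS profiling in S. cerevisiae of the tFT-X12 degron library: putative degron peptides plus stable controls, 12 aa, fused to the C-terminus of a sfGFP-mCherry timer. Cells are FACS-sorted into 8 mCherry/sfGFP bins and deep-sequenced. PSI runs from 0 (unstable) to 1 (stable). Backgrounds are wild type, das1Δ and doa10Δ at 30 °C, and wild type, das1Δ, cdc34-1 and cdc53-1 at 37 °C; 2-3 technical replicates each.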
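Further: PSI is a weighted mean of sequencing reads over stability bins, variants kept only with over 10 reads, mCherry proximal and sfGFP distal, peptide attached via GGGS linker.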

Row | Sequence | protein stability index
1 | PPTHDSPVWSPS | 0.687 ± 0.02
2 | PPVAYVCHLYVT | 0.335 ± 0.028
3 | PPVLAPHLCFPP | 0.675 ± 0.019
4 | PRTTHTPLLIAS | 0.205 ± 0.025
5 | PSFLAIRVCLLV | 0.0766 ± 0.01
6 | PSPRLSLPPRLP | 0.686 ± 0.024
7 | PSPRRPPRSRFP | 0.654 ± 0.037
8 | PSPYSLSPYFLV | 0.302 ± 0.043
9 | PSRLSFALLFHL | 0.406 ± 0.039
10 | PTAGFFGLLVLV | 0.286 ± 0.02
11 | PVHARYCSLKWA | 0.279 ± 0.013
12 | PWGVGLACLFLL | 0.096 ± 0.017
13 | PYPSVIFFLHVY | 0.169 ± 0.025
14 | QIGSMLGVQGVG | 0.4672 ± 0.0041
15 | QILVSYSFLYFF | 0.38 ± 0.017
16 | QVVWAVPRICLV | 0.358 ± 0.028
17 | QWRSWSFATLVT | 0.258 ± 0.038
18 | RCRLYLNVVVLC | 0.122 ± 0.025
19 | RCTFSFSFPFVL | 0.602 ± 0.023
20 | RFCRVERAILLR | 0.351 ± 0.026
21 | RFFKMREAIRIS | 0.24 ± 0.032
22 | RFPFFLPFIAFL | 0.254 ± 0.032
23 | RGCFVLRKTHLL | 0.152 ± 0.014
24 | RGVRALFLLLSF | 0.272 ± 0.016
25 | RHAHPLTAQLPL | 0.671 ± 0.042
26 | RHIPSIILAHVV | 0.192 ± 0.024

Row | Sequence | protein stability index
27 | RICACHGIRFIP | 0.392 ± 0.032
28 | RIFWMFFSQHIG | 0.139 ± 0.024
29 | RLCLLLCCRLWL | 0.428 ± 0.011
30 | RLFVRIQLSLLF | 0.265 ± 0.033
31 | RLICFFSMYLRF | 0.355 ± 0.026
32 | RLLFFVFLSSRF | 0.329 ± 0.035
33 | RLRCRVLQWVWG | 0.385 ± 0.027
34 | RLSTTTTKQFIH | 0.348 ± 0.022
35 | RMTFFGFTVKML | 0.264 ± 0.03
36 | RNFSFTVICLAM | 0.474 ± 0.023
37 | RPCRPLIAAFVF | 0.421 ± 0.031
38 | RQILYYRERFIP | 0.196 ± 0.022
39 | RRIKNRRLKQVT | 0.283 ± 0.026
40 | RRQLVLVLSWVI | 0.322 ± 0.017
41 | RRQQNHRQLCAT | 0.259 ± 0.038
42 | RRRNQAAHLYSH | 0.159 ± 0.024
43 | RSFGGRPWVLFL | 0.0971 ± 0.025
44 | RTRVRKTRIRTC | 0.277 ± 0.0072
45 | RVFLVLFLILSG | 0.286 ± 0.018
46 | RVIRHLRRISNF | 0.16 ± 0.045
47 | RVLSLLGCFVVF | 0.429 ± 0.013
48 | RVLVEIVYFKVF | 0.05 ± 0.0044
49 | RVRNSQVVAVVG | 0.382 ± 0.018
50 | RVTEYHTKYKIV | 0.0674 ± 0.021
51 | RWAAAVPLLVVG | 0.137 ± 0.032
52 | RWRYHAYVITIL | 0.0812 ± 0.025

Row | Sequence | protein stability index
53 | RYKIEKKKLMNN | 0.235 ± 0.035
54 | SEVMVGLRLTLN | 0.318 ± 0.03
55 | SFRIWLFRFFFV | 0.372 ± 0.016
56 | SFSFCCLLASFV | 0.461 ± 0.015
57 | SFSIPILLLAFP | 0.314 ± 0.021
58 | SFYAGLVVGGVG | 0.5 ± 0.018
59 | SGLVAFSVCCRG | 0.308 ± 0.02
60 | SGLVHVLILGAC | 0.338 ± 0.033
61 | SGRGFSFVLCTV | 0.339 ± 0.025
62 | SGRKNQRILGLY | 0.221 ± 0.038
63 | SLAPPPPLLILR | 0.348 ± 0.025
64 | SLARPGLCFVIA | 0.342 ± 0.026
65 | SLASPPPLLILR | 0.354 ± 0.0056
66 | SLFFCIPIHSVF | 0.423 ± 0.021
67 | SLIVLRSIAVLD | 0.392 ± 0.025
68 | SLRYRFLSFFFL | 0.208 ± 0.019
69 | SLSFLRPLLLIF | 0.0702 ± 0.013
70 | SLTNYQRLIHVC | 0.126 ± 0.036
71 | SLVLLVASVTGS | 0.384 ± 0.03
72 | SMFFLFFFFFFF | 0.328 ± 0.017
73 | SNFQLLPLFKNI | 0.216 ± 0.041
74 | SPRGVVIAFLVC | 0.124 ± 0.025
75 | SQIALIQYFHIL | 0.1 ± 0.017
76 | SQVILFFLSLCR | 0.4977 ± 0.0029
77 | SRICRTIIQLKQ | 0.121 ± 0.022
78 | SRLVSRLGLYLS | 0.22 ± 0.022
